Paper PMC7763088, “Impact of Different Lipid Ligands on the Stability and IgE-Binding Capacity of the Lentil Allergen Len c 3” (Biomolecules, 2020)
Where two headings read alike, the source gives them in different places.

Columns and labels:
rLen c 3 [1] = target: T1, rLen c 3 (Lens culinaris, UniProt A0AT29); experiment: TNS displacement lipid binding assay; set-up: species or system lentil; conditions: for IC50: 25 °C, 4 μM TNS, 4 μM rLen c 3, read-out: IC50 (TNS displacement)
T1 construct: with the formation of the large fragment 1–80 and the protein without C-terminal Phe93; His8-TrxL (octahistidine-thioredoxin carrier) (N, cleaved yes); made in house; host or cells: Escherichia coli BL-21 (DE3)
T1 sequence (A0AT29 26-118): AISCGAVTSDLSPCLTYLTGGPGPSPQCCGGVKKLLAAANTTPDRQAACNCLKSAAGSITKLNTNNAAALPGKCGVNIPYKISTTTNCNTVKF
Description: The ability of rLen c 3 to bind lipids was assayed by monitoring the displacement of the fluorescent probe TNS. Fluorescence intensity was measured at 25 °C with a F-2710 spectrofluorimeter (Hitachi, Tokyo, Japan), using a […] slit width for both excitation (λ = 320 nm) and emission (λ = 437 nm) and the measurement taken for no longer than 1.5–2 s. After equilibrating TNS (4 μM) in 10 mM phosphate buffer, pH 7.4, or 150 mM sodium chloride, pH 2.5, for 2 min with gentle mixing, the 2 mM of competing ligand was titrated into the 2 mL of 4 μM rLen c 3 solution in 1 μL aliquots. The resulting data were fitted by using a sigmoidal curve-fitting in GraphPad Prism from which the concentration able to displace 50% of the TNS (IC50) was calculated. The dependence of the ligand binding on temperature was performed at 20, 40, 60, 90, and 20 °C, after cooling down as previously described. Temperature was checked with a temperature probe in the cuvette. Each experiment was performed in triplicate, independently.

rLen c 3 [2] = target: T1, rLen c 3; experiment: ELISA of IgE binding to rLen c 3 preincubated with lipid ligands; set-up: species or system lentil; conditions: preincubation with 60 μM ligand, sera with 10 μM ligand; sera from 10 patients; p > 0.1
Description: To study the effects of lipid ligands on IgE binding capacity of allergen, rLen c 3 was covalently bound to Nunc Immobilizer Amino surface plates (Thermo Scientific, Waltham, MA, USA), according to peptide coupling protocol. rLen c 3 solution (100 μg/mL) in 100 mM sodium carbonate, pH 9.6, was added to the wells; after that, the plates were incubated at 25 °C for 2 h. Then 10 mM ethanolamine at the same buffer was used for the plates post-coupling at 25 °C for 1 h. Pre-incubation with PBS or lipid ligand solutions in PBS at concentration of 60 μM was performed overnight at 4 °C. After that, the plates were incubated with selected sera in 1:4 dilution, overnight, at 4 °C, with the absence or presence of 10 μM lipid ligands, due to the reversibility of Len c 3-ligand complexes. Subsequent steps of ELISA were carried out as described above. This experiment was performed twice, independently.

rLen c 3 [3] = target: T1, rLen c 3; experiment: Effect of lipid ligands on gastrointestinal digestion of rLen c 3; type: in vitro ADME, lentil
Description: (§1) Simulation of gastrointestinal digestion in vitro was performed as described in [15]. Briefly, gastric digestion was performed for 2 h, using 50 ng of pepsin (p) (Sigma) per 1 μg of rLen c 3 in 0.1 M HCl, pH 2.0 (final protein concentration 0.05 mM). For duodenal digestion, pH of the mixture resulting from gastric digestion was adjusted to 8.0 by addition of ammonium bicarbonate. The obtained mixture was incubated for 24 h at 37 °C with 2.5 ng of trypsin (t) (Promega, Madison, WI, USA) and 10 ng of α-chymotrypsin (ch) (Sigma) per 1 μg of the substrate. Degree of proteolysis was monitored by sodium dodecyl sulfate polyacrylamide gel electrophoresis (SDS-PAGE) under reducing conditions and reversed-phase high-performance liquid chromatography (RP-HPLC) on Luna C18 column (5 μm, 250 × 4.6 mm; Phenomenex, Torrance, CA, USA) at a flow rate of 0.5 mL/min, using a gradient of acetonitrile concentration from 5 to 65% for 45 min in 0.1% trifluoroacetic acid (TFA). Gel analysis was performed, using a densitometer. Electroblotting and subsequent N-terminal protein sequencing were performed as described. The protein was preheated at 100 °C for 30 min to study the effect of temperature on allergen stability. rLen c 3 was preloaded with various lipid ligands (LTP to lipid molar ratio 1:4) for 10 min, in order to investigate their effects on allergen resistance to proteolytic digest. As a control of the influence of lipid ligands on the work of proteolytic enzymes, the same reactions were carried out, using bovine α-casein (Sigma) as a substrate. Some independent experiments were performed in each case.

rLen c 3 [4] = target: T1, rLen c 3; experiment: Effect of lipid ligands on secondary structure and thermostability of rLen c 3 (CD spectroscopy); type: physicochemical, lentil; conditions: pH 7.4, ligand 1 mM
Description: (§2) Circular dichroism spectra were recorded at different temperatures, using a J-810 spectropolarimeter (Jasco, Hachioji, Tokyo, Japan) in a 0.1 cm path length quartz cell (Hellma GmbH & Co. KG, Mullheim, Germany) in the 190–250 nm range, and 0.2, using solutions of rLen c 3 in 10 mM phosphate buffer, pH 7.4, or 150 mM sodium chloride, pH 2.5, simulated gastric fluid, at a concentration of 17 µM. Fatty acids or lysolipids were added at a final concentration of 1 mM. Each experiment was performed twice, independently.

pepsin = experiment: In vitro gastric digestion (SDS-PAGE); type: in vitro ADME; conditions: pepsin, pH 2.0, 2 h
Description: as §1, with “As a control of the influence of lipid ligands on the work of proteolytic enzymes, the same reactions were carried out, using bovine α-casein (Sigma) as a substrate. Some independent experiments were performed in each case.” left out

[5] = test system: specific IgE in sera of allergic patients; experiment: ELISA of sIgE binding to intact, heated or digested rLen c 3; set-up: species or system human
Description: Sera from allergic patients (n = 100) with food and pollen allergy were obtained from the Clinical Diagnostic Center of G.N. Gabrichevsky Research Institute for Epidemiology and Microbiology. The work with human sera was approved by the local ethical committees of this Institute (FS-99-01-009026, Moscow, Russia). The amount of specific IgE (sIgE) to allergen extracts in the patient sera was determined by using RIDA qLine Allergy Panel 1-4 (R-Biopharm, Pfungstadt, Germany). Screening of sera containing sIgE to peach Pru p 3 and Len c 3 was performed by ELISA. For that, plate wells (Corning Incorporated, Corning, NY, USA) were coated with recombinant allergen (0.5 μg/well) in 0.01 M phosphate buffered saline (PBS), pH 7.4, for 1 h, at 37 °C; saturated with 2% bovine serum albumin (SERVA, Heidelberg, Germany) in PBS buffer for 1 h, at 37 °C; and then incubated with the sera of allergic patients (1:4 dilution), for 2 h, at 37 °C. Specific IgE binding was detected by using peroxidase-conjugated anti-human IgE from goat (Sigma) (1:2000 dilution), and 3,3′,5,5′-tetramethylbenzidine (TMB) liquid substrate system for ELISA (Sigma). The enzymatic reaction was stopped after 30 min by 2 N H2SO4 and absorbance values were determined at 450 nm. Moreover, 0.01 M PBS with 0.05% Tween-20 was used as a washing solution on each step. For sIgE binding experiments with the intact or heated (at 100 °C for 30 min) or digested (gastric and subsequent duodenal digestion for 2 h) rLen c 3, patient sera containing sIgE were selected (Table S3). Intact and treated rLen c 3 samples were coated in wells of 96-well plates (0.5 μg/well), and ELISA was performed as described above. Sera samples from non-allergic individuals were used as a negative control.

[6] = Circular dichroism spectroscopy of rLen c 3 (pH and heat stability, secondary structure); type: physicochemical; conditions: for random (secondary structure estimation from Far-UV CD spectra) / turn (secondary structure estimation from Far-UV CD spectra) / α-helix (secondary structure estimation from Far-UV CD spectra) / β-sheet (secondary structure estimation from Far-UV CD spectra): lipid 1 mM where added
Description: as §2

[7] = test system: trypsin and α-chymotrypsin; experiment: In vitro duodenal digestion after gastric digestion (SDS-PAGE densitometry); type: in vitro ADME
Description: as §1

[8] = 20 °C end (after cooling down from 98.5 °C), pH 7.4

CCCCCCCCCCCCCCCC(=O)OC[C@@H](O)COP(=O)(O)OCC(O)CO (stereo partly drawn) [LPPG, lyso-palmitoyl phosphatidylglycerol]
IC50 (rLen c 3 [1]; 10 mM phosphate buffer, pH 7.4): 4.3 ± 0.2 µM
IC50 (rLen c 3 [1]; 150 mM sodium chloride, pH 2.5): 4.3 ± 0.03 µM
Change of rLen c 3 affinity for the ligand at acidic pH (rLen c 3 [1]; pH 2.5 compared with pH 7.4): remained unchanged
Ability of rLen c 3 to bind the ligand after heating and cooling down (rLen c 3 [1]; pH 7.4, heated from 20 to 90 °C, then cooled down to 20 °C): almost completely restored
Effect of ligand on IgE binding capacity of rLen c 3 (rLen c 3 [2]): small increase
Degradation of rLen c 3 in the presence of ligand (rLen c 3 [3]; 24 h of duodenal digestion, LTP to lipid molar ratio 1:4): ~ 55%
Effect of protein preheating before digestion in the presence of ligand on rate of allergen degradation (rLen c 3 [3]; after 4 and 24 h, effect more pronounced with LPPC): slightly increased
Effect of ligand on rLen c 3 degradation rate (proteolytic digestion) (rLen c 3 [3]; gastric then duodenal digestion, LTP to lipid molar ratio 1:4): more pronounced
Recovery of rLen c 3 structure after cooling down in the presence of ligand (rLen c 3 [4]; cooling down to 20 °C after 98.5 °C): complete recovery of the native conformation
Effect of ligand on rLen c 3 thermostability (resistance to thermal denaturation) (rLen c 3 [4]; heating up to 98.5 °C): most pronounced effect

rLen c 3: recombinant lentil allergen Len c 3, a lipid transfer protein, overexpressed in Escherichia coli
Stability to gastric digestion (pepsin): remarkable stability
IgE-binding capacity after heating ([5]; 100 °C for 30 min, vs intact rLen c 3, patient sera 1:4): significantly (p < 0.001) reduced
IgE-binding in rPru p 3 IgE+ sera ([5]; all rPru p 3 IgE+ sera, compared with rPru p 3): lower values than for rPru p 3
IgE-binding capacity after proteolytic digestion ([5]; gastric and subsequent duodenal digestion for 2 h, vs intact rLen c 3, patient sera 1:4): significantly (p < 0.001) reduced
random (secondary structure estimation from Far-UV CD spectra) [6, 8]: 34.9%
turn (secondary structure estimation from Far-UV CD spectra) [6, 8]: 21.8%
α-helix (secondary structure estimation from Far-UV CD spectra) [6, 8]: 5.6%
β-sheet (secondary structure estimation from Far-UV CD spectra) [6, 8]: 37.7%
random (secondary structure estimation from Far-UV CD spectra) ([6]; 20 °C, pH 7.4): 30.3%
α-helix (secondary structure estimation from Far-UV CD spectra) ([6]; 20 °C, pH 7.4): 28.4%
β-sheet (secondary structure estimation from Far-UV CD spectra) ([6]; 20 °C, pH 7.4): 19.1%
Protein folding state on heating ([6]; 98.5 °C, pH 7.4): almost completely unfolded
random (secondary structure estimation from Far-UV CD spectra) ([6]; 98.5 °C, pH 7.4): 33.9%
turn (secondary structure estimation from Far-UV CD spectra) ([6]; 98.5 °C, pH 7.4): 22.0%
α-helix (secondary structure estimation from Far-UV CD spectra) ([6]; 98.5 °C, pH 7.4): 6.6%
β-sheet (secondary structure estimation from Far-UV CD spectra) ([6]; 98.5 °C, pH 7.4): 37.4%
Recovery of CD spectrum after cooling down ([6]; cooled down to 20 °C after 98.5 °C, pH 7.4): not recovered
CD spectrum at acidic pH mimicking gastric juice ([6]; pH 2.5 vs pH 7.4, 20 °C): remains almost unchanged
Temperature required for allergen denaturation ([6]; pH 7.4, also shown in ref 17): above 80 °C
Intact protein cleaved (densitometric gel analysis) ([7]; 30 min of duodenal digestion after 2 h gastric digestion): more than 65%
Intact protein cleaved (densitometric gel analysis) ([7]; 2 h of duodenal digestion after 2 h gastric digestion): > 85%
rLen c 3 degradation ([7]; 24 h of duodenal digestion): 100%
Effect of protein preheating on degradation ([7]; preheating at 100 °C for 30 min before digestion): slightly increased an efficiency of the allergen degradation
